Measured values reported in patent US20260166158A1, “HSP90-BINDING CONJUGATES AND FORMULATIONS THEREOF” (Fusion Pharmaceuticals Inc., priority 2019, published 2026).

Key:
[1] = tested on: NCI-H460 tumor-bearing mice (lung cancer); assay: Biodistribution: lutetium accumulation in tumor, plasma and healthy tissues by ICP-MS; assay type: in vivo; conditions: for % ID/g uptake, H460 tumor, 24 h / % ID/g uptake, H460 tumor, 72 h / % ID/g uptake, Kidney, 24 h / % ID/g uptake, Kidney, 72 h / % ID/g uptake, Liver, 24 h / % ID/g uptake, Liver, 72 h / % ID/g uptake, Plasma, 24 h / % ID/g uptake, Plasma, 72 h: 0.5 mg/kg lutetium conjugate; for % ID/g uptake, H460 tumor, 24 h / % ID/g uptake, Kidney, 24 h / % ID/g uptake, Liver, 24 h / % ID/g uptake, Plasma, 24 h / T/K (Tumor/Kidney ratio) / T/L (Tumor/Liver ratio) / T/P (Tumor/Plasma ratio) / Kidney uptake, % ID/g 24 h / Liver uptake, % ID/g 24 h / Plasma, % ID/g 24 h / Tumor uptake, % ID/g, 24 h: 24 h; for Kidney uptake, % ID/g 24 h / Liver uptake, % ID/g 24 h / Plasma, % ID/g 24 h / Tumor uptake, % ID/g, 24 h: second table
Description: Lutetium accumulation was measured in tumor, plasma and healthy tissues of NCI-H460 tumor-bearing mice (lung cancer). NCJ-H460 tumor bearing mice were dosed with 0.5 mg/kg of lutetium conjugates. At the time points indicated, mice were sacrificed and tumor, liver, kidneys and plasma were taken. All tissues were analyzed for lutetium content by ICP-MS, and lutetium uptake in % ID/g determined by the following equation: […]
Biodistribution at 24 h and Tumor/Kidney ratio (T/K), Tumor/Liver ratio (T/L), Tumor/Plasma ratio (T/P) are give in the table below.

[2] = molecular target: T1, purified N-terminal HSP90a (Homo sapiens, UniProt P07900); assay: HSP90 binding, competitive fluorescence polarization assay
T1 construct: 350 ng of N-terminal HSP90a
Description: HSP90 binding was determined by a competitive fluorescence polarization assay with purified N-terminal HSP90a. A series of dilutions of the test compounds were prepared with 10% DMSO in assay buffer and 10 μl of the dilution was added to a 100 μl reaction so that the final concentration of DMSO is 1% in all reactions. The reactions were conducted at room temperature for 3 hours in a 100 μl mixture containing assay buffer, 5 nM FITC Labeled Geldanamycin, 350 ng of N-terminal HSP90a, and the test compound. Fluorescence intensity was measured at an excitation of 485 nm and an emission of 530 nm using a Tecan Infinite M1000 microplate reader. Fluorescence intensity is converted to fluorescence polarization using the Tecan Magellan6 software. The fluorescence polarization data were analyzed using the computer software, Graphpad Prism. The fluorescence polarization (FPt) in absence of the compound in each data set was defined as 100% activity. In the absence of protein and the compound, the value of fluorescent polarization (FPb) in each data set was defined as 0% activity. The percent activity in the presence of the compound was calculated according to the following equation: % activity=(FP−FPb)/(FPt−FPb)×100%, where FP=the fluorescence polarization in the presence of the compound. HSP90 binding data are below.

Row | Compound | % ID/g uptake, H460 tumor, 24 h [1] [% ID/g] | % ID/g uptake, H460 tumor, 72 h [1] [% ID/g] | % ID/g uptake, Kidney, 24 h [1] [% ID/g] | % ID/g uptake, Kidney, 72 h [1] [% ID/g] | % ID/g uptake, Liver, 24 h [1] [% ID/g] | % ID/g uptake, Liver, 72 h [1] [% ID/g] | % ID/g uptake, Plasma, 24 h [1] [% ID/g] | % ID/g uptake, Plasma, 72 h [1] [% ID/g] | Kd [2] [pM] | T/K (Tumor/Kidney ratio) [1] | T/L (Tumor/Liver ratio) [1] | T/P (Tumor/Plasma ratio) [1] | Kidney uptake, % ID/g 24 h [1] [% ID/g] | Liver uptake, % ID/g 24 h [1] [% ID/g] | Plasma, % ID/g 24 h [1] [% ID/g] | Tumor uptake, % ID/g, 24 h [1] [% ID/g]
1 | CCNC(=O)c1nnc(-c2cc(C(C)C)c(O)cc2O)n1-c1ccc(CN2CCN(C(=O)CCNC(=O)[C@@H](CCC(=O)N3CCN(Cc4ccc(-n5c(C(=O)NCC)nnc5-c5cc(C(C)C)c(O)cc5O)cc4)CC3)NC(=O)CCNC(=O)[C@@H](CCC(=O)O)NC(=O)[C@@H](CCC(=O)O)NC(=O)[C@@H](CCC(=O)O)NC(=O)COCCOCCNC(=O)CC[C@H](C(=O)O)N3CCN4CCN5CCN(CC3)CC(=O)[O][Lu]([O]C(=O)C5)[O]C(=O)C4)CC2)cc1 [T4] | 3.06 | 2.19 | 4.86 | 2.28 | 0.59 | 0.62 | 0.21 | 0.09 | 450 |  |  |  |  |  |  | 
2 | CCNC(=O)c1nnc(-c2cc(C(C)C)c(O)cc2O)n1-c1ccc(CN2CCN(C(=O)CCNC(=O)[C@@H](CCC(=O)N3CCN(Cc4ccc(-n5c(C(=O)NCC)nnc5-c5cc(C(C)C)c(O)cc5O)cc4)CC3)NC(=O)CCNC(=O)[C@@H](CCC(=O)O)NC(=O)[C@@H](CCC(=O)O)NC(=O)[C@@H](CCC(=O)O)NC(=O)COCCOCCNC(=O)CNC(=O)[C@H](CCCCN)NC(=O)CNC(=O)CC[C@H](C(=O)O)N3CCN4CCN5CCN(CC3)CC(=O)[O][Lu]([O]C(=O)C5)[O]C(=O)C4)CC2)cc1 [T9] | 2.43 | 0.93 | 8.15 | 2.78 | 0.62 | 0.25 | 26.50 | 1.53 | 470 |  |  |  |  |  |  | 
3 | CCNC(=O)c1nnc(-c2cc(C(C)C)c(O)cc2O)n1-c1ccc(CC2CCN(C(=O)CCOCCOCCOCCOCCOCCOCCOCCOCCOCCOCCOCCOCCNC(=O)CN3CCN4CCN5CCN(CC3)CC(=O)[O][Lu]([O]C(=O)C4)[O]C(=O)C5)CC2)cc1 [CMP34] |  |  |  |  |  |  |  |  |  | 3.96 | 3.06 | 5.54 | 1.12 | 1.45 | 0.80 | 4.43
4 | CCNC(=O)c1nnc(-c2cc(C(C)C)c(O)cc2O)n1-c1ccc(CN2CCN(C(=O)C[C@H](NC(=O)CCNC(=O)[C@H](CO)NC(=O)[C@H](CO)NC(=O)[C@H](CO)NC(=O)CC[C@H](C(=O)O)N3CCN4CCN5CCN(CC3)CC(=O)[O][Lu]([O]C(=O)C5)[O]C(=O)C4)C(=O)N[C@H](C)C(=O)N3CCN(Cc4ccc(-n5c(C(=O)NCC)nnc5-c5cc(C(C)C)c(O)cc5O)cc4)CC3)CC2)cc1 [CMP44] |  |  |  |  |  |  |  |  |  | 3.28 | 2.34 | 2.47 | 1.34 | 1.88 | 1.78 | 4.39
5 | CCNC(=O)c1nnc(-c2cc(C(C)C)c(O)cc2O)n1-c1ccc(CN2CCN(C(=O)CCOCCOCCOCCOCCNC(=O)CN3CCN4CCN5CCN6CC(=O)O[C]6(C3)[Lu]([O]C(=O)C4)[O]C(=O)C5)CC2)cc1 (stereo not shown) [CMP1] |  |  |  |  |  |  |  |  |  | 1.28 | 1.92 | 7.68 | 0.91 | 0.607 | 0.152 | 1.167
6 | CCNC(=O)c1nnc(-c2cc(C(C)C)c(O)cc2O)n1-c1ccc(CN2CCN(C(=O)C[C@H](NC(=O)CCNC(=O)[C@@H](CO)NC(=O)[C@@H](CO)NC(=O)[C@@H](CO)NC(=O)CC[C@H](C(=O)O)N3CCN4CCN5CCN(CC3)CC(=O)[O][Lu]([O]C(=O)C5)[O]C(=O)C4)C(=O)N[C@H](C)C(=O)N3CCN(Cc4ccc(-n5c(C(=O)NCC)nnc5-c5cc(C(C)C)c(O)cc5O)cc4)CC3)CC2)cc1 [CMP48] |  |  |  |  |  |  |  |  |  | 3.08 | 2.33 | 4.87 | 1.50 | 1.99 | 0.95 | 4.64
7 | CCNC(=O)c1nnc(-c2cc(C(C)C)c(O)cc2O)n1-c1ccc(C2CCN(C(=O)CCOCCOCCOCCOCCOCCOCCOCCOCCOCCOCCOCCOCCNC(=O)CN3CCN4CCN5CCN(CC3)CC(=O)[O][Lu]([O]C(=O)C4)[O]C(=O)C5)CC2)cc1 [CMP33] |  |  |  |  |  |  |  |  |  | 2.05 | 3.64 | 5.11 | 1.62 | 0.91 | 0.65 | 3.32
8 | CCNC(=O)c1nnc(-c2cc(C(C)C)c(O)cc2O)n1-c1ccc(CC2CCN(C(=O)CCOCCOCCOCCOCCNC(=O)CN3CCN4CCN5CCN(CC3)CC(=O)[O][Lu]([O]C(=O)C4)[O]C(=O)C5)CC2)cc1 [CMP31] |  |  |  |  |  |  |  |  |  | 5.00 | 2.30 | 5.19 | 0.84 | 1.83 | 0.81 | 4.20
9 | CCNC(=O)c1nnc(-c2cc(C(C)C)c(O)cc2O)n1-c1ccc(CC2CCN(C(=O)CCC(=O)N[C@@H](CCCCNC(=O)CN3CCN4CCN5CCN(CC3)CC(=O)[O][Lu]([O]C(=O)C4)[O]C(=O)C5)C(=O)N3CCC(Cc4ccc(-n5c(C(=O)NCC)nnc5-c5cc(C(C)C)c(O)cc5O)cc4)CC3)CC2)cc1 [CMP24] |  |  |  |  |  |  |  |  |  | 2.58 | 1.07 | 0.89 | 4.81 | 11.53 | 13.96 | 12.39
